The values that follow come from patent US7754689B2, “Finger-1 peptide analogs of the TGF-β superfamily” (Wyeth LLC, priority 2006, dated 2010).

For one experiment, the target named is T1, BMP-3 (Homo sapiens, UniProt P12645).
T1 construct: a propeptide fragment copurifies along with the mature protein; made in house; host or cells: CHO cells (conditioned medium)
T1 sequence (P12645 363-472): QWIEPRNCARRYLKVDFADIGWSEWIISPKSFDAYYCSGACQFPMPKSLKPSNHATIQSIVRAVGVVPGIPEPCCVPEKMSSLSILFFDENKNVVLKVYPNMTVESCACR
In words: Affinity column chromatography, capture and elution of BMP-3. It is filed as binding. To be noted: for capture of BMP-3 by column with immobilized ligand: CHO-conditioned media with 1.2 M NaCl (high salt) load; for elution of BMP-3 from column with immobilized ligand: washes, then gradient to 50 mM acetic acid pH 3, then 6M GuHCl. On the procedure: (§1) BMP-12 was immobilized on NHS-activated Sepharose™ beads at a ratio of about 20 mg:4 mL and the resulting media combined with water or neutral saline buffer to prepare a column. CHO-conditioned media augmented with 1.2 M NaCl was loaded onto the column. In some cases, the media was preconcentrated with respect to BMP before loading. The column was washed with 15 CV (column volumes) of 1.2 M NaCl in 40 mM Na2HPO4 at pH 7.2, followed by 0.5 M arginine/0.5 M NaCl in 20 mM Tris at pH 7.5 (15 CV) and a low salt wash (50 mM ammonium acetate at pH 7, 15 CV). […] Finally, the column was eluted with 5CV of the acetic acid solution with 6M guanidine hydrochloride (GuHCl).
The eluate was analyzed using HPLC.
4 mL of the resulting resin (1.6×2.0 cm) was used to prepare a column. The column was loaded with BMP-3 and eluted as in Example 1.

Experiment [1] has as its target T2, BMP-12 (Homo sapiens, UniProt Q7Z4P5).
T2 sequence (Q7Z4P5 322-450): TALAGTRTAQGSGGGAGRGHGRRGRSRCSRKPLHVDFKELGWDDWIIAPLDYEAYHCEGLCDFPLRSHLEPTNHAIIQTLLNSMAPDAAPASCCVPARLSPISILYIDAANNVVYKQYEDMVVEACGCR
Kind of experiment: Affinity column chromatography, capture and elution of BMP-12. In kind it is binding. Conditions: for capture of BMP-12 by column with immobilized ligand: high salt / high ionic strength load; for elution of BMP-12 from column with immobilized ligand: washes, then gradient to 50 mM acetic acid pH 3, then 6M GuHCl. On the procedure: as §1
BMP-12 was loaded and eluted from a BMP-12 affinity column as in Example 1.
BMP-12 was purified using a column prepared with the BMP-12 wild type peptide described in Example 7.

The target in a further experiment is T3, GDF-9 (Homo sapiens, UniProt O60383).
T3 sequence (O60383 320-454): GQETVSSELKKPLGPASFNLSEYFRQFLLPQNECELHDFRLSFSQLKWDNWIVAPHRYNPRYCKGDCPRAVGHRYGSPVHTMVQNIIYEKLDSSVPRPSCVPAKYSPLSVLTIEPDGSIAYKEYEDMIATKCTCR
Kind of experiment: Affinity column chromatography, capture and elution of GDF-9. In kind it is binding. On the procedure: as §1
A lower molecular weight contaminant was also present.

Experiment [2] addresses T4, BMP-12 (UniProt Q7Z4P5 322-450, limits assumed).
T4 construct: also called BMP12/GDF7
T4 sequence (looked up): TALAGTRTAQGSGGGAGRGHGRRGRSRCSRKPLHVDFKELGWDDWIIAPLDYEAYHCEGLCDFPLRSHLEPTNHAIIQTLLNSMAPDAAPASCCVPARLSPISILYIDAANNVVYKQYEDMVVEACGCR
Kind of experiment: peptide resin, filter plate; load 6: 1M CHES pH 9.7. As for the experimental part: (§2) The coupled resins, plus an unconjugated resin for use as a control, were suspended in 16% ethanol, 150 mM NaCl, and 20 mM Tris buffer at pH 7.5 at a 25% v/v ratio (e.g., 25% ethanol, 75% Tris buffer). A Tecan liquid-handling robot was employed to aliquot 200 μL of each slurry into one of eight rows of a 96 well polystyrene filter plate (0.45 μm hydrophilic filters, Whatman catalog number 770-1806). Spinning at 1200 g for 3 min removed the liquid phase, leaving 50 μL of wet resin on the filters. The resins were then equilibrated with the loading buffers listed in Table 6 (K is a coefficient characterizing the strength of protein binding to a particular resin in a particular buffer). […] The resins were loaded by transferring 150 μL from the load plate to the filter plate and then incubating 20 min on a shaking platform to facilitate binding. The filter plate was spun down and the filtrate collected in a 96 well UV plate. The protein concentration in the filtrate, or flow-through, was calculated as $(A280-A320)/1.3$. The filter plate was then washed with 150 μL of 100 mM acetic acid, followed by 150 μL of 4M guanidine-HCl and 50 mM sodium acetate at pH 4.0. The protein concentration was measured in the new filtrate as described above. […] Flow-through and acetic acid elution samples from column 4 of the plate (loaded with MES pH 6) were analyzed on a gel (FIG. 14).

Experiment [3] has as its target T4, BMP-12. Kind of experiment: peptide resin, filter plate; load 2: 50 mM Acetic Acid, 0.1 M NaCl, pH 4.0. On the procedure: as §2
In experiment [4] the target is T4, BMP-12. In words: peptide resin, filter plate; load 11: 50 mM Tris, 0.25 M NaCl, 30% MPD, pH 8.0. As for the experimental part: as §2
Experiment [5] deals with T4, BMP-12. Kind of experiment: peptide resin, filter plate; load 4: 25 mM MES pH 6.0. On the procedure: as §2
Experiment [6] deals with T4, BMP-12. Kind of experiment: peptide resin, filter plate; load 1: 50 mM Acetic Acid, 0.1 M NaCl, pH 2.9. On the procedure: as §2
Experiment [7] concerns the target T4, BMP-12. Kind of experiment: peptide resin, filter plate; load 5: 25 mM HEPES pH 7.0. As for the experimental part:
as §2

Experiment [8] concerns the target T4, BMP-12. In words: peptide resin, filter plate; load 12: 50 mM Tris, 0.1 M NaCl, 20% MPD, pH 8.0. As for the experimental part: as §2
Experiment [9] addresses T4, BMP-12. In words: peptide resin, filter plate; load 3: 25 mM Na Acetate pH 5.0. As for the experimental part: as §2
The target in experiment [10] is T4, BMP-12. In words: peptide resin, filter plate; load 10: 50 mM Tris, 0.1 M NaCl, 40% MPD, pH 8.0. On the procedure: as §2

No end group written: not given here.

For KELGWDDWIIAPLDYEAYHCEGLC [SEQ ID NO: 2], in the experiment with BMP-3, the “capture of BMP-3 by column with immobilized ligand” value is “effectively captured” and the “elution of BMP-3 from column with immobilized ligand” value was “eluted in acetic acid”. Besides, the “effectiveness of immobilized ligand compared with the BMP-2 mutant” value with BMP-3 (in general) was “less effective than the BMP-2 mutant”. For the same molecule, in the experiment with BMP-12 [1], the “capture of BMP-12 by column with immobilized ligand” value is on record as “effectively captured” and the “elution of BMP-12 from column with immobilized ligand” value was “eluted with acetic acid”.
Consider SDVGWNDWIVAPPGYHAFYCHGEK [SEQ ID NO: 1], for which the “elution of GDF-9 from column with immobilized ligand” value with GDF-9 was “eluted with both 500 mM arginine and acetic acid”. Besides, the “capture of GDF-9 by column with immobilized ligand” value with GDF-9 (high salt solution load) was “effectively captured”. In the experiment with BMP-3, the “capture of BMP-3 by column with immobilized ligand” value is “effectively captured” and the “elution of BMP-3 from column with immobilized ligand” value is “eluted, along with a propeptide fragment, in acetic acid”. Moreover, in the experiment with BMP-12 [1], the “capture of BMP-12 by column with immobilized ligand” value is listed as “effectively captured” and the “elution of BMP-12 from column with immobilized ligand” value is reported as “eluted with acetic acid”.

B1: BMP2 C-trunc_2 peptide 746 (peptide)
peptide: Ac-LYVSDVGWNDWIVK
modifications: not fully specified (residue 3); printed as Ac-LYV**SDVGWNDWIVK; also: ** after V3 not explained
In the case of B1, the “Flow-through K” value in the experiment with BMP-12 [2] was -1; with BMP-12 [3] it was 25; in the experiment with BMP-12 [4], 0; with BMP-12 [5] it was 47; with BMP-12 [6] it was 7; with BMP-12 [7] it was 6. Besides, the figures for the “Flow-through K” value with BMP-12 [8], with BMP-12 [9] and with BMP-12 [10] were 0, 18 and 0, respectively. Also, the Flow-through conc with BMP-12 [2] came to 0.71 mg/mL; with BMP-12 [3], 0.052 mg/mL; with BMP-12 [4], 0.515 mg/mL; with BMP-12 [5], 0.029 mg/mL; with BMP-12 [6], 0.15 mg/mL; with BMP-12 [7], 0.162 mg/mL. The Flow-through conc is 0.486 mg/mL with BMP-12 [8], 0.07 mg/mL with BMP-12 [9] and 0.505 mg/mL in the experiment with BMP-12 [10]. Also, the “100 mM HAc elution K” value worked out at 3 with BMP-12 [3]; 1 with BMP-12 [5]; 3 with BMP-12 [6]; 1 with BMP-12 [7]; 1 with BMP-12 [9]. Also, the “100 mM HAc elution conc” value with BMP-12 [3] was 0.208 mg/mL; in the experiment with BMP-12 [5], 0.32 mg/mL; with BMP-12 [6], 0.154 mg/mL; in the experiment with BMP-12 [7], 0.249 mg/mL; with BMP-12 [9], 0.296 mg/mL. In addition, the “4M Gnd, 50 mM NaAc pH 4 Strip Conc” value with BMP-12 [3] came out at 0.162 mg/ml; with BMP-12 [5] it was 0.07 mg/ml; with BMP-12 [6] it was 0.135 mg/ml; in the experiment with BMP-12 [7], 0.068 mg/ml; with BMP-12 [9] it was 0.1 mg/ml.
